Reference: patent US20070060518A1

How the values were obtained:
[1] = molecular target: HLA-A*0201 class I monomer on avidin-coated plates (iTopia Epitope Discovery System) (human); test: iTopia affinity assay (FIGS. 27A and 27B)
[2] = molecular target: HLA-A*0201 class I monomer on avidin-coated plates (iTopia Epitope Discovery System) (human); test: iTopia off-rate assay (FIG. 26)

| fold reduction of ED50 against the native peptide [1] [fold] | t1/2 [2] [h] | Substance |
| --- | --- | --- |
| > 4 | – | PRAME425-433 S425F L433Nle analog (peptide) |
| – | 17.2 | PRAME425-433 analog with Nva at PΩ (peptide) |
